{"source": "paper PMC10240976", "about": "(2022)", "target": "LC3B K65W", "experiment": "ITC", "data": [{"binder": "LQFEIDDEMEPLYNQAKQMRYGDY", "note": "[LIR[Sp] peptide]", "values": [{"measurement": "Kd", "result": 22.4, "unit": "µM"}]}]}
